The record followed here is patent publication US12365738B2, “Method of treating an interleukin-11-associated or -mediated fibrotic disease or condition by administering an anti-interleukin-11 receptor subunit alpha (IL-11RA) antibody” (Lassen Therapeutics, Inc., priority 2021, dated 2025).

B1: mAb14: anti-IL-11Rα antibody, human IgG4 (S228P), kappa; VH SEQ ID NO: 219, VL SEQ ID NO: 220 (antibody, V domains shown)
VH: EVQLLESGGGLVQPGGSLRLSCAASGFTFSWYSMTWVRQAPGKGLEWVSSIVPYGDLTQYAESVKGRFTISRDNSKNTLYLQMNSLRAEDTAVYYCAKGPGWGSFDLWGRGTLVTVSS
VL: DIQMTQSPSSLSASVGDRVTITCQASQDINNYLNWYQQKPGKAPKLLIYDASNLQTGVPSRFSGSGSGTDFTFTISSLQPEDIATYYCQQHESQSPTFGPGTKVDIK
modifications: IgG4 S228P kappa constant regions; mAb14 VH Chain; mAb14 VL Chain
B2: mAb7: anti-IL-11Rα antibody, human IgG4 (S228P), kappa; VH SEQ ID NO: 205, VL SEQ ID NO: 206 (antibody, V domains shown)
VH: B1 VH with W31N, S33A, T35S, E62D
VL: B1 VL
modifications: human IgG4 S228P and kappa constant regions; mAb7 VH Chain; mAb7 VL Chain
B3: mAb12: anti-IL-11Rα antibody, human IgG4 (S228P), kappa; VH SEQ ID NO: 215, VL SEQ ID NO: 216 (antibody, V domains shown)
VH: B1 VH with E62D, G103Y
VL: B1 VL
modifications: IgG4 S228P kappa constant regions; mAb12 VH Chain; mAb12 VL Chain
B4: mAb15: anti-IL-11Rα antibody, human IgG4 (S228P), kappa; VH SEQ ID NO: 221, VL SEQ ID NO: 222 (antibody, V domains shown)
VH: B1 VH with E62D
VL: B1 VL with S93T, S95T
modifications: IgG4 S228P kappa constant regions; mAb15 VH Chain; mAb15 VL Chain
B5: mAb11: anti-IL-11Rα antibody, human IgG4 (S228P), kappa; VH SEQ ID NO: 213, VL SEQ ID NO: 214 (antibody, V domains shown)
VH: B1 VH with P53D, E62D
VL: B1 VL
modifications: IgG4 S228P kappa constant regions; mAb11 VH Chain; mAb11 VL Chain
B6: mAb8: anti-IL-11Rα antibody, human IgG4 (S228P), kappa; VH SEQ ID NO: 207, VL SEQ ID NO: 208 (antibody, V domains shown)
VH: B1 VH with W31S, S33A, T35S, E62D
VL: B1 VL
modifications: human IgG4 S228P and kappa constant regions; mAb8 VH Chain; mAb8 VL Chain
B7: mAb6: anti-IL-11Rα antibody, human IgG4 (S228P), kappa; VH SEQ ID NO: 203, VL SEQ ID NO: 204 (antibody, V domains shown)
VH: B1 VH with E62D
VL: B1 VL with S93F
modifications: human IgG4 S228P and kappa constant regions; mAb6 VH Chain; mAb6 VL Chain
B8: mAb9: anti-IL-11Rα antibody, human IgG4 (S228P), kappa; VH SEQ ID NO: 209, VL SEQ ID NO: 210 (antibody, V domains shown)
VH: B1 VH with S50G, E62D
VL: B1 VL
modifications: human IgG4 S228P and kappa constant regions; mAb9 VH Chain; mAb9 VL Chain
B9: mAb13: anti-IL-11Rα antibody, human IgG4 (S228P), kappa; VH SEQ ID NO: 217, VL SEQ ID NO: 218 (antibody, V domains shown)
VH: B1 VH with E62D, G99P, P100E, G101D, S104R
VL: B1 VL
modifications: IgG4 S228P kappa constant regions; mAb13 VH Chain; mAb13 VL Chain
B10: mAb10: anti-IL-11Rα antibody, human IgG4 (S228P), kappa; VH SEQ ID NO: 211, VL SEQ ID NO: 212 (antibody, V domains shown)
VH: B1 VH with P53A, E62D
VL: B1 VL
modifications: IgG4 S228P kappa constant regions; mAb10 VH Chain; mAb10 VL Chain

Residue numbers refer to the chain shown, from its start. Names and notes keep the numbering of the source.

For one assay, the target named is T1, hIL-11Rα (Homo sapiens, UniProt Q14626).
T1 sequence (Q14626 23-422): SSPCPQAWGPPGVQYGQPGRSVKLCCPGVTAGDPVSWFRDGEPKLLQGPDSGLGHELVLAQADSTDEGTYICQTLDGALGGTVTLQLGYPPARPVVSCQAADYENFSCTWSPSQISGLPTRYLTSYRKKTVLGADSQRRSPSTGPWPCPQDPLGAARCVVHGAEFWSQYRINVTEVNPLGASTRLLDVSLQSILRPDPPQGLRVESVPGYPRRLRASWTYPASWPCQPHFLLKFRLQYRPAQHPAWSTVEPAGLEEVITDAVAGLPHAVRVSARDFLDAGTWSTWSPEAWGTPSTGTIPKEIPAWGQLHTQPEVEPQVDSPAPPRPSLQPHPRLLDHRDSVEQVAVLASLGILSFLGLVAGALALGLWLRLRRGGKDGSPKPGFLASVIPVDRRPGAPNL
Description: Kinetic binding analysis by biolayer interferometry (protein G biosensors, Octet RED96e). The method, then: Association was carried out in the presence of a 2-fold dilution series of hIL-11Rα and was allowed to proceed for 120 seconds; dissociation was measured for 300 to 1200 seconds.
In turn, B1 yielded a ka of 33700 M⁻¹ s⁻¹ and a kd of less than 1e-07 s⁻¹.

As for B2, the ka is 63500 M⁻¹ s⁻¹ and the kd is less than 1e-07 s⁻¹.

With B3, the ka amounted to 58100 M⁻¹ s⁻¹ and the kd is less than 1e-07 s⁻¹.

In turn, B4 displayed a ka of 84000 M⁻¹ s⁻¹ and a kd of less than 1e-07 s⁻¹.

The molecule B5 had a ka of 32900 M⁻¹ s⁻¹ and a kd of 0.0181 s⁻¹.

Molecule B6 yielded a ka of 65100 M⁻¹ s⁻¹ and a kd of less than 1e-07 s⁻¹.

B7: the ka came to 800000 M⁻¹ s⁻¹ and the kd is less than 1e-07 s⁻¹.

B8 displayed a ka of 62200 M⁻¹ s⁻¹ and a kd of less than 1e-07 s⁻¹.

The molecule B9 gave a ka of 66700 M⁻¹ s⁻¹ and a kd of less than 1e-07 s⁻¹.

B10: the ka stood at 840000 M⁻¹ s⁻¹ and the kd was found to be 0.000416 s⁻¹.

The subject of another assay is IL-11 signaling (STAT3 Reporter (Luciferase)-HEK293 cell line). Description: Cell-based STAT3 reporter (luciferase) HEK293 assay for inhibiting IL-11 signaling. Details: species or system human. The method, then:
Further testing of the lead mAbs was carried out using a cell-based reporter assay. IL-11 is reported to signal through the STAT3 and ERK pathways. Therefore, a STAT3 reporter cell line in which firefly luciferase gene expression is driven by STAT3 response elements located upstream of a minimal TATA promoter was selected to analyze mAb functional activity. In these cells, IL-11 can activate the endogenous STAT3 allowing it to bind to the STAT3 response elements, inducing transcription of the luciferase reporter gene and resulting in readily detectable luciferase expression. Antibodies to IL-11R which block IL-11 signaling should inhibit expression of IL-11 driven luciferase in these cells.
The STAT3 Reporter (Luciferase)—HEK293 cell line (BPS Bioscience, catalog #79800-P) was grown, passaged, and assayed as per manufacturer's protocols. Cells were added at 25,000 cells per well in a 96-well microtiter dish and incubated at 37° C. for 30-45 min. in 5% CO2 humidified air. Anti-IL-11R mAbs were added as a 3-fold dilution series in duplicate columns or rows, and plates were returned to the incubator for an additional 1 h at 37° C. after which 40 ng/mL IL-11 was added to each well to initiate the signal transduction cascade and luciferase production. Plates were incubated for 18-24 hours at 37° C. and luciferase was detected using a One-Step Luciferase Assay System (BPS Bioscience, cat. no. 60690-1) as per manufacturer's instructions.
With B1, the “potency at inhibiting IL-11 signaling relative to TS7 / 8E2 (in words)” value is on record as “comparable in potency to TS7”.

Turning to B2, the “potency at inhibiting IL-11 signaling relative to TS7 / 8E2 (in words)” value was “less potent than TS7”.

Consider B3, for which the “potency at inhibiting IL-11 signaling relative to TS7 / 8E2 (in words)” value is listed as “comparable in potency to TS7”.

For the molecule B4, the “potency at inhibiting IL-11 signaling relative to TS7 / 8E2 (in words)” value was “comparable in potency to TS7”.

As for B5, the “potency at inhibiting IL-11 signaling relative to TS7 / 8E2 (in words)” value is on record as “less potent than TS7”.

Take B6: the “potency at inhibiting IL-11 signaling relative to TS7 / 8E2 (in words)” value is on record as “less potent than TS7”.

In the case of B7, the “potency at inhibiting IL-11 signaling relative to TS7 / 8E2 (in words)” value is recorded as “variable”.

For B8, the “potency at inhibiting IL-11 signaling relative to TS7 / 8E2 (in words)” value is on record as “more potent at inhibiting IL-11 signaling than either of TS7 or 8E2”.

As for B9, the “potency at inhibiting IL-11 signaling relative to TS7 / 8E2 (in words)” value is on record as “more potent at inhibiting IL-11 signaling than either of TS7 or 8E2”.

As for B10, the “potency at inhibiting IL-11 signaling relative to TS7 / 8E2 (in words)” value was “less potent than TS7”.
